Laboratory results published in patent US9081017 (CAMBRIDGE ENTERPRISE, dated 2015).

Molecular target: T1, TRAF2 (mouse, endogenous) (mouse, UniProt P39429 2-501)
T1 construct: Endogenous protein; also called TNF-receptor associated factor 2
T1 sequence (looked up): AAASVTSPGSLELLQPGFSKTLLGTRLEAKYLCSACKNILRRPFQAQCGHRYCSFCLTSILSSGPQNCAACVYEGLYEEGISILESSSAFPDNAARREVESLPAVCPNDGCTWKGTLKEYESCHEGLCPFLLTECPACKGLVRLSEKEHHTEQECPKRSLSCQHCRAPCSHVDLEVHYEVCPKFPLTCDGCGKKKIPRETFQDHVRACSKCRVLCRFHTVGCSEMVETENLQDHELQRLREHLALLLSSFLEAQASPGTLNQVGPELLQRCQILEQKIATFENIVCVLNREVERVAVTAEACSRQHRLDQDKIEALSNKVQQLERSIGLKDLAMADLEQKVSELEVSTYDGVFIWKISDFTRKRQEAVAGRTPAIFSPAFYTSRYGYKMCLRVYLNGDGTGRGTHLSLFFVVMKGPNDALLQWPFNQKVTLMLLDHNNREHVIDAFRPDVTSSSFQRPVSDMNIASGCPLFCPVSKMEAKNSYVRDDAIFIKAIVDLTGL
Assay: co-immunoprecipitation from ischemic hindlimb muscle of C57BL/6 mice

- binding result: binds
B1: TNFR2 (mouse, endogenous in hindlimb muscle of C57BL/6 mice) (receptor, UniProt P25119 23-474, looked up)
chain: VPAQVVLTPYKPEPGYECQISQEYYDRKAQMCCAKCPPGQYVKHFCNKTSDTVCADCEASMYTQVWNQFRTCLSCSSSCTTDQVEIRACTKQQNRVCACEAGRYCALKTHSGSCRQCMRLSKCGPGFGVASSRAPNGNVLCKACAPGTFSDTTSSTDVCRPHRICSILAIPGNASTDAVCAPESPTLSAIPRTLYVSQPEPTRSQPLDQEPGPSQTPSILTSLGSTPIIEQSTKGGISLPIGLIVGVTSLGLLMLGLVNCIILVQRKKKPSCLQRDAKVPHVPDEKSQDAVGLEQQHLLTTAPSSSSSSLESSASAGDRRAPPGGHPQARVMAEAQGFQEARASSRISDSSHGSHGTHVNVTCIVNVCSSSDHSSQCSSQASATVGDPDAKPSASPKDEQVPFSQEECPSQSPCETTETLQSHEKPLPLGVPDMGMKPSQAGWFDQIAVKVA
notes: Endogenous protein immunoprecipitated from muscle tissue; also called tumor necrosis factor receptor 2
